Patent US10392620B2, “Cytochrome B (CYTB) nucleic acid molecules that control pathogens” (Dow AgroSciences LLC, priority 2016, dated 2019)

B1: MgCytB-T1: 267 bp dsRNA of Zymoseptoria CytB region 1, location 364-630 (SEQ ID NO:4) (nucleic acid, listed as Zymoseptoria tritici)
chain: GTTCTGATGATGGCAACCGCATTCTTAGGGTATGTATTACCTTATGGTCAAATGTCTTTATGAGGAGCAACAGTTATAACTAACTTATTGAGTGCAATACCTTGAGTTGGACAAGACATAGTTGAATTCGTATGAGGTGGATTTTCTGTTAACAATGCAACATTGAACAGATTCTTTGCTCTACATTTCGTTTTACCGTTTGTGTTAGCTGCATTAGTTTTAATGCATCTAATAGCTTTACACGATACAGCGGGTTCAGGAAATCCT
modifications: complementary strand of dsRNA
B2: MgCytB-T2: 203 bp dsRNA of Zymoseptoria CytB region 2, location 603-805 (SEQ ID NO:5) (nucleic acid, listed as Zymoseptoria tritici)
chain: ACACGATACAGCGGGTTCAGGAAATCCTTTAGGTGTATCAGGTAACTACGATAGATTACCATTCGCCCCTTACTTTATATTCAAAGATTTAATAACAATATTTTTATTCATTATAGTGTTATCAATATTTATTTTCTTTATGCCTAACGTTTTAGGTGACAGCGAGAATTATGTTATGGCTAACCCTATGCAAACTCCACCTG
modifications: complementary strand of dsRNA
B3: MgCytB-T3: 116 bp dsRNA of Zymoseptoria CytB region 3, location 279-394 (SEQ ID NO:6) (nucleic acid, listed as Zymoseptoria tritici)
chain: TTACCTGCACGTGGGTAGAGGGTTATACTACGGGTCATACAAAGCCCCTAGAACATTAACATGAACAATCGGTACTATAATACTAGTTCTGATGATGGCAACCGCATTCTTAGGGT
modifications: long dsRNA, chemistry not given here, further chemistry not given here
B4: MgCytB-T6: 258 bp dsRNA of Zymoseptoria CytB region T6, location 775-1032 (SEQ ID NO:9) (nucleic acid, listed as Zymoseptoria tritici)
chain: GTTATGGCTAACCCTATGCAAACTCCACCTGCTATAGTGCCTGAATGATATTTATTACCTTTCTACGCTATACTAAGATCAATACCTAACAAACTATTAGGTGTGATCGCAATGTTTTCTGCTATATTGATTATAATGATAATGCCAATTACCGATTTAGGTAGAAGTAGAGGATTACAGTTTAGACCTTTAAGCAAGATCACATTTTACATATTTGTTGCTAACTTCTTAGTATTAATGCAATTAGGTGCTAATCAC
modifications: complementary strand of dsRNA
B5: MgCytB-T4: 219 bp dsRNA of Zymoseptoria CytB region T4, location 1-219 (SEQ ID NO:7) (nucleic acid, listed as Zymoseptoria tritici)
chain: ATGAGGATTTGGAAGAGTCACCCTTTATTTAGTCTGGTTAATGGTTATCTTATCGATTCACCACAACCAAGTAATCTAAGCTATCTATGAAATTTCGGTTCATTACTGGGATTTTGTCTTGTAATACAAATCGTTACTGGTGTTACACTTGCTATGCATTATAACCCTAGCGTATCTGAAGCATTTAACTCAGTTGAACACATAATGAGAGATGTAAAC
modifications: complementary strand of dsRNA
B6: MgCytB-T7: 221 bp dsRNA of Zymoseptoria CytB region T7, location 947-1167 (SEQ ID NO:10) (nucleic acid, listed as Zymoseptoria tritici)
chain: GATTACAGTTTAGACCTTTAAGCAAGATCACATTTTACATATTTGTTGCTAACTTCTTAGTATTAATGCAATTAGGTGCTAATCACGTTGAGTCACCATTTATAGAATTTGGGCAAATTAGTACAGTACTGTACTTTTCACATTTCTTAATCATAGTGCCTCTAGTAAGCTTAATCGAGAATACTTTAGTGGATATGCACTTAAACAACACAATAACGTAA
modifications: complementary strand of dsRNA
B7: MgCytB-T5: 172 bp dsRNA of Zymoseptoria CytB region T5, location 173-344 (SEQ ID NO:8) (nucleic acid, listed as Zymoseptoria tritici)
chain: TATCTGAAGCATTTAACTCAGTTGAACACATAATGAGAGATGTAAACAATGGATGACTTATACGTTATCTTCACTCTAATACTGCTTCAGCTTTCTTCTTTTTAGTTTACCTGCACGTGGGTAGAGGGTTATACTACGGGTCATACAAAGCCCCTAGAACATTAACATGAAC
modifications: complementary strand of dsRNA

tested on: Zymoseptoria tritici (SEPTTR) US-184; experiment: CytB dsRNA foliar application bioassay on wheat seedlings, SEPTTR US-184; format: in vivo; settings: compared to the non-treated control; strain not given
Protocol: RNAi (dsRNA) fungicidal solutions were prepared in TE buffer (pH 8.0), which were then mixed with 9 volumes of phosphate buffer (pH 7.5) containing 0.1% Triton X-100. The fungicidal solutions were applied to wheat seedlings using an automated booth sprayer to run-off. All sprayed plants were allowed to air dry prior to further handling.
The following served as controls: 1% silwet in phosphate buffer control, disease pressure control (untreated), and clean plant control (negative control).
(§1) These plants were inoculated with an aqueous spore suspension of Zymoseptoria tritici either prior to or after fungicidal treatments. After inoculation the plants were kept in 100% relative humidity to allow spores to germinate and infect the leaves. The plants were then transferred to a greenhouse until disease developed.

In the case of B1, the “control of Septoria leaf blotch on wheat seedlings” value (“control of Septoria leaf blotch” below) is reported as “observed to control Septoria leaf blotch”.
In the case of B2, the “control of Septoria leaf blotch” value is reported as “observed to control Septoria leaf blotch”.
B3 was tested, and the “control of Septoria leaf blotch” value was “observed to control Septoria leaf blotch”.

tested on: Zymoseptoria tritici (SEPTTR-184); experiment: Efficacy of target gene fragments (MgCytB dsRNA tiles) on wheat plants, SEPTTR-184; format: in vivo; design: Average of 2 trials SEPTTR-184 3DC / Average of 2 trials SEPTTR-184 1DP: scale not given here; settings: 1DP (preventative)
Protocol: The 200 ppm rate for each treatment was prepared by adding the calculated volume of the corresponding dsRNA solution in TE buffer. Lower rates were prepared as 4-fold dilutions (50 ppm, 12.5 ppm, and 3.12 ppm). A non-target dsRNA control (YFP), a TE/phosphate buffer control, disease pressure control, and clean plant control were included.
as §1

In the case of B4, the “ED50 SEPTTR-184 1DP” value is reported as less than 3.125 ppm.
In the case of B1, the “ED50 SEPTTR-184 1DP” value is reported as less than 3.125 ppm.
For B5, the “ED50 SEPTTR-184 1DP” value was less than 3.125 ppm.
For B2, the “ED50 SEPTTR-184 1DP” value was less than 3.125 ppm.
B6 was tested, and the “ED50 SEPTTR-184 1DP” value was less than 3.125 ppm.
For B7, the “ED50 SEPTTR-184 1DP” value was less than 3.125 ppm.
In the case of B3, the “ED50 SEPTTR-184 1DP” value is reported as less than 3.125 ppm.

In the case of B4, the “ED80 SEPTTR-184 1DP” value is reported as greater than 200 ppm.
For B5, the “ED80 SEPTTR-184 1DP” value was greater than 200 ppm.
With B2 the “ED80 SEPTTR-184 1DP” value was greater than 200 ppm.
In the case of B6, the “ED80 SEPTTR-184 1DP” value is reported as greater than 200 ppm.
In the case of B7, the “ED80 SEPTTR-184 1DP” value is reported as greater than 200 ppm.
With B3 the “ED80 SEPTTR-184 1DP” value was greater than 200 ppm.

For B1, the “ED80 SEPTTR-184 1DP” value was 200 ppm.

same assay, conditions: 1DP (preventative); average of 200, 50, 12.5, 3.125 ppm

In order of falling “Disease Control All Rates Average SEPTTR-184 1DP” value:
1. B4  73%
2. B5  73%
3. B2  71%
4. B7  71%
5. B6  69%
6. B3  68%
7. B1  66%

same assay, conditions: 1DP (preventative); sum over 200, 50, 12.5, 3.125 ppm

In order of falling “Sum of Disease Control SEPTTR-184 1DP” value:
1. B4  293%
2. B5  292%
3. B2  285%
4. B7  284%
5. B6  275%
6. B3  271%
7. B1  263%

same assay, conditions: 3DC (curative)

In the case of B4, the “ED50 SEPTTR-184 3DC” value is reported as less than 3.125 ppm.
For B1, the “ED50 SEPTTR-184 3DC” value was less than 3.125 ppm.
B5 was tested, and the “ED50 SEPTTR-184 3DC” value was less than 3.125 ppm.
For B2, the “ED50 SEPTTR-184 3DC” value was less than 3.125 ppm.
With B6 the “ED50 SEPTTR-184 3DC” value was less than 3.125 ppm.
In the case of B3, the “ED50 SEPTTR-184 3DC” value is reported as less than 3.125 ppm.

With B4 the “ED80 SEPTTR-184 3DC” value was greater than 200 ppm.
For B6, the “ED80 SEPTTR-184 3DC” value was greater than 200 ppm.
B3 was tested, and the “ED80 SEPTTR-184 3DC” value was less than 3.125 ppm.

In order of rising “ED80 SEPTTR-184 3DC” value:
1. B2  27 ppm
2. B5  44 ppm
3. B1  159 ppm
4. B7  200 ppm

B7 was tested, and the “ED50 SEPTTR-184 3DC” value was 4.605 ppm.

same assay, conditions: 3DC (curative); average of 200, 50, 12.5, 3.125 ppm

In order of rising “Disease Control All Rates Average SEPTTR-184 3DC” value:
1. B4  60%
2. B7  66%
3. B6  74%
4. B1  79%
5. B5  79%
6. B2  82%
7. B3  84%

same assay, conditions: 3DC (curative); sum over 200, 50, 12.5, 3.125 ppm

In order of falling “Sum of Disease Control SEPTTR-184 3DC” value:
1. B3  334%
2. B2  329%
3. B1  318%
4. B5  316%
5. B6  297%
6. B7  265%
7. B4  239%

same assay, conditions: 3.125 ppm; 1DP (preventative)

In order of rising “Average of 2 trials SEPTTR-184 1DP” value:
1. B1  53
2. B3  59
3. B6  60
4. B2  67
5. B7  68
6. B5  71
7. B4  72

same assay, conditions: 3.125 ppm; 3DC (curative)

In order of rising “Average of 2 trials SEPTTR-184 3DC” value:
1. B7  47
2. B4  53
3. B5  76
4. B6  76
5. B1  77
6. B2  77
7. B3  84

same assay, conditions: 12.5 ppm; 1DP (preventative)

In order of falling “Average of 2 trials SEPTTR-184 1DP” value:
1. B4  77
2. B5  74
3. B2  71
4. B6  69
5. B7  68
6. B3  64
7. B1  58

same assay, conditions: 12.5 ppm; 3DC (curative)

In order of rising “Average of 2 trials SEPTTR-184 3DC” value:
1. B4  63
2. B7  66
3. B6  72
4. B5  75
5. B1  76
6. B2  77
7. B3  84

same assay, conditions: 50 ppm; 1DP (preventative)

In order of falling “Average of 2 trials SEPTTR-184 1DP” value:
1. B3  74
2. B5  73
3. B7  73
4. B4  72
5. B1  71
6. B2  71
7. B6  71

same assay, conditions: 50 ppm; 3DC (curative)

In order of rising “Average of 2 trials SEPTTR-184 3DC” value:
1. B4  64
2. B7  72
3. B6  73
4. B1  79
5. B5  81
6. B3  81
7. B2  85

same assay, conditions: 200 ppm; 1DP (preventative)

In order of falling “Average of 2 trials SEPTTR-184 1DP” value:
1. B1  80
2. B2  77
3. B7  76
4. B6  75
5. B5  74
6. B3  74
7. B4  72

same assay, conditions: 200 ppm; 3DC (curative)

In order of falling “Average of 2 trials SEPTTR-184 3DC” value:
1. B2  90
2. B1  85
3. B3  84
4. B5  83
5. B7  80
6. B6  76
7. B4  59

same assay, conditions: in vivo

In the case of B3, the “level of control, ranking among fragments” value is reported as “best level of control”.
